Positions count from the first letter of the chain named.
B1: V053 (antibody, V domains shown)
VH: QVQLVQSGAEVKKPGASVKVSCKASGYTFTSYYMHWVRQAPGQGLEWMGIINPSAGSTTYAQKFQGRVTMTSDTSTSTVYMELSSLKSEDTAVYYCARDFVLVPASYGMDVWGQGTTVTVSS
VL: QSVLTQPASVSGSPGQSITISCTGTSSDVGSYNLVSWFQQHPGKAPKLMIYQVSKRPSGASNRFSGSKSGNTASLTISGLQAEDEADYYCCSYAGSSTVWVFGGGTKLTVL
notes: IgG; donor BRA15; source: recombinant monoclonal IgG, produced and purified as previously described
B2: V062 (antibody, V domains shown)
VH: QLQLQESGPGLVKPSETLSLTCTVSSGSISSSSYYWGWIRQPPGKGLEWIGSIYYSGSTYYNPSLKSRVTISVDTSKNQFSLKLSSVTAADTAVYYCARHWRENFAHAFDIWGQGTMVTVSS
VL: B1 VL with V3A, N33D, Q52E, S54T, A60V, A94V, V99Y
notes: as for B1
B3: V049 (antibody, V domains shown)
VH: QVQLVESGGGVVQPGRSLRLSCAASRFPFSNYGMHWVRQAPGKGLEWVAVISFDGNNKYYGDSVKGRLTISRDNSKNTLYLQVKSLRPEDTAVYYCAKDISTGLSLALFRSPDGEGMDVWGQGTTVTVSS
VL: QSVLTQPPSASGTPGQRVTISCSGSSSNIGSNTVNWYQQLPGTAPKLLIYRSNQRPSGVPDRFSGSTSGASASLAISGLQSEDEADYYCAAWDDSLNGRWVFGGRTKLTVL
notes: as for B1
B4: V007 (antibody, V domains shown)
VH: QVQLVQSGAEVKKPGSSVKVSCKASGDTFSTYTISWVRQAPGQGLEWMGRIIPILGVGNYAQKFQGRVTITADKSTSTAYMELSSLRSEDTAVYYCAHTTPPGDAFDIWGQGTMVTVSS
VL: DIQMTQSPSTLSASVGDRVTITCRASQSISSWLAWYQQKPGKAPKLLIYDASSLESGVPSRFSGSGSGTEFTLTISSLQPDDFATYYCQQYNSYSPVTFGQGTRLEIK
notes: IgG; donor BRA13; source: recombinant monoclonal IgG, produced and purified as previously described
B5: V011 (antibody, V domains shown)
VH: QVQLVQSGAEVKKPGASVKVSCKASGYIFTSYDINWVRQATGQGLEWMGWMNPNSGNTGYAQKFQGRVTMTRNTSISTAYMELSSLRSEDTAVYYCARASSSLTYYFDYWGQGTLVTVSS
VL: SYELTQPPSVSVAPGKTARITCGENNIGSKSVHWYQQKPGQAPVLVVYDDSDRPSGIPERFSGSNSGNTATLTISRVEAGDEADYYCQVWDSSSDPVVFGGGTKLTVL
notes: as for B4
B6: V056 (antibody, V domains shown)
VH: QVQLVESGGGVVQPGRSLRLSCAASGFPFSNYGMHWVRQAPGKGLEWVAVISYDGSNKYYADSVKGRFTISRDNSKNTLYLQMNSLRAEDTALYYCAKDSRPLPAAMSTYYYYGVDVWGQGTTVTVSS
VL: not shown
notes: as for B1
B7: V060 (antibody, V domains shown)
VH: B6 VH with Q39R, S56L, S85R, L93V, L103V, A105G, V115M
VL: not shown
notes: as for B1
B8: V004 (antibody, V domains shown)
VH: QVQLQESGPGLVKPSQTLSLTCTVSGGSISSGSYYWSWIRQPAGKGLEWIGRIYTSGSTNYNPSLKSRVTISVDTSKNQFSLKLSSVTAADTAVYYCARDTTDDYYVIWGQGTLVTVSS
VL: DIQMTQSPSTLSASVGDRVTITCRASQSIRSWLAWYQQKPGKAPKLLIYDASSLESGVPSRFSGSGSGTEFTLTISSLQPDDFATYYCQQYNTHFRTFGQGTKVEIK
notes: as for B4
B9: V016 (antibody, V domains shown)
VH: QVQLVESGGGVVQPGRSLRLSCAASGFTFSNYGMHWVRQAPGKGLEWVAVISYDGSNKYYADSVKGRFTISRDNSKNTLYLQMNSVRVEDTAVYYCAKGSFGYSYVHTYFDYWGQGTLVTVSS
VL: B8 VL with R30S, T72I, T93S, H94P, F95M, R96Y, V104L
notes: as for B4
B10: V063 (antibody, V domains shown)
VH: QVQLVESGGGVVQPGRSLRLSCAASGFPFSSFGMHWVRQAPGKGLEWVAVISSDGSNKYYADSVKGRFTISRDNSKNTLYLQMNSLRAEDTAVYYCAKEFTYVVVTAFWGTENFDIWGQGTMVTVSS
VL: B8 VL with R30S, K45N, D50K, S53A, T93S, H94Y, F95P, R96I, K103R, V104L
notes: as for B1
B11: V050 (antibody, V domains shown)
VH: EVQLVESGGGLVKPGGSLRLSCAASGFSFSNAWMSWVRQAPGKGLEWVGRIKSKTDGGTTDYAAPVKGRFTISRDDSQNTLYLQMNSLKTEDTAVYYCITDRFRVHIRGYYGQGTLVTVSS
VL: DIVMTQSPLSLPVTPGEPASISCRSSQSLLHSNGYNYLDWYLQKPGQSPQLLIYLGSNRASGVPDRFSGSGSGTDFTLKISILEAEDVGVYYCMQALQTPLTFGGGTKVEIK
notes: as for B1
B12: V054 (antibody, V domains shown)
VH: B10 VH with F108L
VL: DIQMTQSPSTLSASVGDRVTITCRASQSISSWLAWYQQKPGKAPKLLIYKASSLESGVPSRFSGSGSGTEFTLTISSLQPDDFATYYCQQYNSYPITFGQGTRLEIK
notes: as for B1
B13: V046 (antibody, V domains shown)
VH: EVQLVESGGGLVQPGRSLRLSCAASGFTFEDYAMHWVRQAPGKGLEWVSGVSWNSGTIGYADSVKGRFIISRDNAKNSLYLQMNSLRAEDTALYYCANLGPTYYDFSRPTPMDVWGKGTTVTVSS
VL: QSALTQPASVSGSPGQSITISCTGTSSDVGGYNYVSWYQQHPGKAPKLIIYDVSNRPSGVSNRFSGSKSGNTASLTISGLQAEDEADYYCSSYTSSSTWVFGGGTKLTVL
notes: as for B1
B14: V009 (antibody, V domains shown)
VH: EVQLVQSGAEVKKPGESLKISCKGSGYRFTSYWIGWVRQMPGKGLEWMGIIYAGDSDTRYSPSFQGQVTISVDKSISTAYLQWSSLKASDTAMYYCATTMTTGYFDYWGQGTLVTVSS
VL: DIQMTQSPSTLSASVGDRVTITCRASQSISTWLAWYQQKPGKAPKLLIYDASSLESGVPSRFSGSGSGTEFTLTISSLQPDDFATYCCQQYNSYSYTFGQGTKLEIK
notes: as for B4
B15: V057 (antibody, V domains shown)
VH: EVQLVESGGGLVQPGRSLRLSCAASGFTFGDYAMHWVRQAPGKGLEWVSGISWNSGIIGQADSVKGRFTISRDNAKNSLYLQMNSLRVEDTALYYCAKGGGESVEVPADEKLDYWGQGTLVTVSS
VL: QSVLTQPPSVSGAPGQRVTISCTGSSSNIGAGYDVHWYQQLPGTAPKLLIYGNNNRPSGVPDRFSGSKSGTSASLAITGLQAEDEADYYCQSYDSSLSGSWVFGGGTKLTVL
notes: as for B1
B16: V010 (antibody, V domains shown)
VH: QVQLQESGPGLVKPSETLSLTCTVSGGSISSYYWSWIRQPPGKGLEWIGYIYYNGSTNYNPSLKSRVTISLDTSKNQFSLKLSSVTAADTAVYYCASDYYDSSGYYYGFDYWGQGTLVTVSS
VL: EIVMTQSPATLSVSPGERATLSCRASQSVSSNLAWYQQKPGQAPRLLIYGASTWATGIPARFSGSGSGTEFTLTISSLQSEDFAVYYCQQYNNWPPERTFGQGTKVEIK
notes: as for B4
B17: V064 (antibody, V domains shown)
VH: EVQLVESGGGLVQPGGSLRLSCAASGLTVSRNYMRWVRQAPGKGLEWVSLIYSGGSTFYGDSVKGRFTISRDNSKNTLYLQMNSLRAEDTAVYYCARDLVRDGMDVWGQGTTVTVSS
VL: EIVMTQSPATLSVSPGERATLSCRASQSVSSNLAWYQQKPGQAPRLLIYGASTRATGIPARFSGSGSGTEFTLTISSLQSEDFAVYYCQQYNNWTFGQGTKVEIK
notes: as for B1
B18: V048 (antibody, V domains shown)
VH: QVQLVQSGAEVKKPGASVKVSCKASGYTFTSYVISWVRQAPGQGLEWMGWISAYNGNTNYAQKLQGRVTMTTDTSTSTAYMELRSLRSDDTAVYYCARDVAGITMIVEEVIDAFDIWGQGTMVTVSS
VL: SYELTQPSSVSVSPGQTARITCSGDVLAKKYARWFQQKPGQAPVLVIYKDSERPSGIPERFSGSSSGTTVTLTISGAQVEDEADYYCFSAPDNNRVFGGGTKLTVL
notes: as for B1
B19: V051 (antibody, V domains shown)
VH: QVQLVESGGGVVQPGRSLRLSCEASGFTFSTYAMHWVRQAPGKGLEWVAVISYDGNNKYYADSVKGRLTVSRDNSKNTLYLQMNSLRAEDTAEYYCARDDGGYCSSLSCPMDVWGQGTTVTVSS
VL: SYELTQPPSVSVAPGKTARITCGGNSIGSKSVHWYQQRPGQAPVLVIYYDSDRPSGIPERFSGSNSGNTATLTISRVEAGDEADYYCQVWDSTLVFGGGTKLTVL
notes: as for B1
B20: V014 (antibody, V domains shown)
VH: EVQLVESGGGLVQPGGSLRLSCAASGFTFSSYDMHWVRQATGKGLEWVSAIGTAGDTYYPGSVKGRFTISRENAKNSLYLQMNSLRAGDTAVYYCARGVITMVRGVIRDYYYYGMDVWGQGTTVTVSS
VL: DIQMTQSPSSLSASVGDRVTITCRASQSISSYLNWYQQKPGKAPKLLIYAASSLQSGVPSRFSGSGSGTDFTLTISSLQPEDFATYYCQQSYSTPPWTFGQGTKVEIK
notes: as for B4
B21: V045 (antibody, V domains shown)
VH: QVQLVQSGAEVKKPGASVKVSCKASTYTFTSYYIHWVRQAPGQGLEWMGIINPSGGSTSYAQNFQGRVTMTRDTSTSTVYMELSSLRSEDTAVYYCARGVLIPAAGGDFDYWGQGTLVTVSS
VL: QSALTQPRSVSGSPGQSVTISCTGTSSDVGGYKYVSWYQQHPGKAPKLMIYDVSKRPSGVPDRFSGSKSGNTASLTISGLQAEDEADYYCCSYAGSYSWVFGGGTKLTVL
notes: as for B1
B22: V061 (antibody, V domains shown)
VH: QVQLVQSGAEVKKPGTSVKVSCKASGYTFKNYGISWVRQAPGQGLEWMGWISAHNGNTNYAQRVQGRVTMTTDTSTSTAYMELRSLRSEDTAVYYCGRESGVASHPGDLDYWGQGTLVTVSS
VL: SYELTQPPSVSVSPGQTARITCSGDALPRQYAYWYQQKPGQAPVLLIYKDSERPSGIPERFSGSSSGTTVTLTISGVQAEDEADYYCQSADSSVVFGGGAKLTVL
notes: as for B1
B23: V015 (antibody, V domains shown)
VH: EVQLVESGGGLVQPGGSLRLSCAASGFTFNSYWMSWVRQAPGKGLEWVANIKQDGSEKYYVDSVKGRFTISRDNAKNSLYLQMNSLRAEDTAVYYCARLPTYYSGFDYWGQGTLVTVSS
VL: NFMLTQPHSVSESPGKTVTISCTGSSGSIASNYVQWYQQRPGSAPTTVIYEDNQRPSGVPDRFSGSIDSSSNSASLTISGLKTEDEADYYCQSYDSTNRGVVFGGGTKLTVL
notes: as for B4
B24: V013 (antibody, V domains shown)
VH: QVQLVESGGGVVQPGRSLRLSCAGSGFIFSSFAMHWVRQAPGKGLEWVAVVSYDGDNKYYADSVKGRFTISRDNSKNTLYLQMDSLRPEDTAVYFCGRDEAALWIQRWYREIDFWGQGTLVTVSS
VL: QSVLTQPPSVSGTPGQRVTISCSGSSSNTGRNPVTWYQQFPGSAPKLLISRNNQRPSGVPDRFSGSKSGTSASLAISGLQSEDEADYYCAAWDDNLNGQVFGGGTKVTVL
notes: as for B4
B25: V055 (antibody, V domains shown)
VH: QVQLVQSGAEVKKPGSSVKVSCKASGGTFSSYIINWVRQAPGQGLEWMGRIIPILGIANYAQKFHGRVTITADESTSTAYMELSSLRSEDTAVYYCARGGPDPSDSNYAALLYYYYMDVWGKGTTVTVSS
VL: QSVLTQPPSVSAAPGQKVTISCSGSSSNIGSYYVSWYQKLPGTAPKLLIHENNKRPSGIPDRISGSKSGTSATLGITGLQTGDEADYYCGTWDSSLSDVVFGGGTKLTVL
notes: as for B1

Target: T1, 417N/484K/501Y RBD mutant (SARS-CoV-2, Wuhan-Hu-1 RBD backbone …, 417N | 484K | 501Y)
T1 construct: also called RBD KEN
Assay: BLI
Conditions: both partners purified

Q: Which Kd does the source give for B1 here?
A: 2.49 nM

Q: For B2, which Kd is on record?
A: 1.89 nM

Q: B3 was tested. Which Kd did it give?
A: 20.6 nM

Q: Which Kd does the source give for B4 here?
A: 5.78 nM

Q: With B5 as the binder, how does the Kd read?
A: 6.96 nM

Q: B6 was tested. Which Kd did it give?
A: 7.58 nM

Q: With B7 as the binder, how does the Kd read?
A: 4.79 nM

Q: Which Kd does the source give for B8 here?
A: 2.92 nM

Q: Which Kd does the source give for B9 here?
A: 4.43 nM

Q: How did the Kd turn out when B10 was run?
A: 3.34 nM

Q: B11 was tested. Which Kd did it give?
A: 66.7 nM

Q: Which Kd does the source give for B12 here?
A: 15.6 nM

Q: With B13 as the binder, how does the Kd read?
A: 2.85 nM

Q: With B14 as the binder, how does the Kd read?
A: 1.83 nM

Q: Which Kd does the source give for B15 here?
A: 22 nM

Q: Which Kd does the source give for B16 here?
A: 2.11 nM

Q: B17 was tested. Which Kd did it give?
A: 1.91 nM

Q: B18 was tested. Which Kd did it give?
A: 6.26 nM

Q: With B19 as the binder, how does the Kd read?
A: 7.05 nM

Q: Which Kd does the source give for B20 here?
A: 27.3 nM

Q: For B21, which Kd is on record?
A: 2.79 nM

Q: Which Kd does the source give for B22 here?
A: 10.3 nM

Q: Which Kd does the source give for B23 here?
A: 14.3 nM

Q: With B24 as the binder, how does the Kd read?
A: 166 nM

Q: B25 was tested. Which Kd did it give?
A: 1.99 nM

From publication PMC9270183 (The Journal of Experimental Medicine, 2022)
